{
  "source": "the supplement of paper PMC11875167",
  "test": "observed amide hydrogen exchange rate constant kobs (stretched exponential fit, FD-normalized) (s^-1); higher = faster H/D exchange (less protection)",
  "settings": "pH 3 (pH read); temperature: 20 °C; D2O: 88%",
  "procedure,_shortened": "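Uptake curves were fitted to a stretched single exponential with β = 0.8, and kobs, the observed exchange rate constant, is the fitted rate. The data came from Jurkat tryptic peptides (LysC/trypsin, carbamidomethylated cysteines) labeled in 88% D2O at pHread 3, 20 °C, then quenched with 0.23% formic acid at 13 times from 18 to 93,600 s in processing triplicates. MS1 uptake from a Q-Exactive HF, analyzed in HDExaminer with no back-exchange correction, was normalized to full-deuteration controls (24 h, 37 °C).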",
  "data": [
    {"substance": "AAGVNVEPFWPGLFAK", "values": [
      {"measurement": "observed amide hydrogen exchange rate constant kobs", "value": 0.000814}
    ]},
    {"substance": "AAIDWFDGK", "values": [
      {"measurement": "observed amide hydrogen exchange rate constant kobs", "value": 0.00155}
    ]},
    {"substance": "AAPEASGTPSSDAVSR", "values": [
      {"measurement": "observed amide hydrogen exchange rate constant kobs", "value": 0.00186}
    ]},
    {"substance": "AAQEEYVK", "values": [
      {"measurement": "observed amide hydrogen exchange rate constant kobs", "value": 0.00112}
    ]},
    {"substance": "AAVPSGASTGIYEALELRDNDK", "values": [
      {"measurement": "observed amide hydrogen exchange rate constant kobs", "value": 0.00126}
    ]},
    {"substance": "ADLINNLGTIAK", "values": [
      {"measurement": "observed amide hydrogen exchange rate constant kobs", "value": 0.000815}
    ]},
    {"substance": "AEDNADTLALVFEAPNQEK", "values": [
      {"measurement": "observed amide hydrogen exchange rate constant kobs", "value": 0.00102}
    ]},
    {"substance": "AELNEFLTR", "values": [
      {"measurement": "observed amide hydrogen exchange rate constant kobs", "value": 0.00113}
    ]},
    {"substance": "AFAMIIDK", "values": [
      {"measurement": "observed amide hydrogen exchange rate constant kobs", "value": 0.000626}
    ]},
    {"substance": "AFLASPEYVNLPINGNGK", "values": [
      {"measurement": "observed amide hydrogen exchange rate constant kobs", "value": 0.000869}
    ]},
    {"substance": "AGAHLQGGAK", "values": [
      {"measurement": "observed amide hydrogen exchange rate constant kobs", "value": 0.00372}
    ]},
    {"substance": "AGFAGDDAPR", "values": [
      {"measurement": "observed amide hydrogen exchange rate constant kobs", "value": 0.00357}
    ]},
    {"substance": "AGGFLMK", "values": [
      {"measurement": "observed amide hydrogen exchange rate constant kobs", "value": 0.00127}
    ]},
    {"substance": "AGKPVICATQMLESMIK", "values": [
      {"measurement": "observed amide hydrogen exchange rate constant kobs", "value": 0.00088}
    ]},
    {"substance": "AGLQFPVGR", "values": [
      {"measurement": "observed amide hydrogen exchange rate constant kobs", "value": 0.00107}
    ]},
    {"substance": "AGNLGGGVVTIER", "values": [
      {"measurement": "observed amide hydrogen exchange rate constant kobs", "value": 0.000802}
    ]},
    {"substance": "AHSSMVGVNLPQK", "values": [
      {"measurement": "observed amide hydrogen exchange rate constant kobs", "value": 0.000759}
    ]},
    {"substance": "AIADTGANVVVTGGK", "values": [
      {"measurement": "observed amide hydrogen exchange rate constant kobs", "value": 0.00115}
    ]},
    {"substance": "AIIIFVPVPQLK", "values": [
      {"measurement": "observed amide hydrogen exchange rate constant kobs", "value": 0.000266}
    ]},
    {"substance": "AILVDLEPGTMDSVR", "values": [
      {"measurement": "observed amide hydrogen exchange rate constant kobs", "value": 0.0012}
    ]},
    {"substance": "AIPQLQGYLR", "values": [
      {"measurement": "observed amide hydrogen exchange rate constant kobs", "value": 0.00091}
    ]},
    {"substance": "AIVAIENPADVSVISSR", "values": [
      {"measurement": "observed amide hydrogen exchange rate constant kobs", "value": 0.00184}
    ]},
    {"substance": "ALAAFLK", "values": [
      {"measurement": "observed amide hydrogen exchange rate constant kobs", "value": 0.000792}
    ]},
    {"substance": "ALAENSGVK", "values": [
      {"measurement": "observed amide hydrogen exchange rate constant kobs", "value": 0.00135}
    ]},
    {"substance": "ALELTGLK", "values": [
      {"measurement": "observed amide hydrogen exchange rate constant kobs", "value": 0.00115}
    ]},
    {"substance": "ALENDPDCR", "values": [
      {"measurement": "observed amide hydrogen exchange rate constant kobs", "value": 0.00109}
    ]},
    {"substance": "ALESPERPFLAILGGAK", "values": [
      {"measurement": "observed amide hydrogen exchange rate constant kobs", "value": 0.00092}
    ]},
    {"substance": "ALGQNPTNAEVLK", "values": [
      {"measurement": "observed amide hydrogen exchange rate constant kobs", "value": 0.000979}
    ]},
    {"substance": "ALLFIPR", "values": [
      {"measurement": "observed amide hydrogen exchange rate constant kobs", "value": 0.000533}
    ]},
    {"substance": "ALPFWNEEIVPQIK", "values": [
      {"measurement": "observed amide hydrogen exchange rate constant kobs", "value": 0.000814}
    ]},
    {"substance": "ALPGQLKPFETLLSQNQGGK", "values": [
      {"measurement": "observed amide hydrogen exchange rate constant kobs", "value": 0.0011}
    ]},
    {"substance": "ALTSELANAR", "values": [
      {"measurement": "observed amide hydrogen exchange rate constant kobs", "value": 0.00115}
    ]},
    {"substance": "ALTVPELTQQVFDAK", "values": [
      {"measurement": "observed amide hydrogen exchange rate constant kobs", "value": 0.000761}
    ]},
    {"substance": "ALWFQGR", "values": [
      {"measurement": "observed amide hydrogen exchange rate constant kobs", "value": 0.00126}
    ]},
    {"substance": "AMADPEVQQIMSDPAMR", "values": [
      {"measurement": "observed amide hydrogen exchange rate constant kobs", "value": 0.00104}
    ]},
    {"substance": "AMGIMNSFVNDIFER", "values": [
      {"measurement": "observed amide hydrogen exchange rate constant kobs", "value": 0.00109}
    ]},
    {"substance": "ANTFVAELK", "values": [
      {"measurement": "observed amide hydrogen exchange rate constant kobs", "value": 0.00102}
    ]},
    {"substance": "APEPHVEEDDDDELDSK", "values": [
      {"measurement": "observed amide hydrogen exchange rate constant kobs", "value": 0.0038}
    ]},
    {"substance": "APIIAVTR", "values": [
      {"measurement": "observed amide hydrogen exchange rate constant kobs", "value": 0.000401}
    ]},
    {"substance": "AQQELEEQTRR", "values": [
      {"measurement": "observed amide hydrogen exchange rate constant kobs", "value": 0.00236}
    ]},
    {"substance": "AQVARPGGDTIFGK", "values": [
      {"measurement": "observed amide hydrogen exchange rate constant kobs", "value": 0.00115}
    ]},
    {"substance": "ARFEELNADLFR", "values": [
      {"measurement": "observed amide hydrogen exchange rate constant kobs", "value": 0.00175}
    ]},
    {"substance": "ASILNTWISLK", "values": [
      {"measurement": "observed amide hydrogen exchange rate constant kobs", "value": 0.000492}
    ]},
    {"substance": "ATENDIANFFSPLNPIR", "values": [
      {"measurement": "observed amide hydrogen exchange rate constant kobs", "value": 0.000823}
    ]},
    {"substance": "ATFMVGSYGPRPEEYEFLTPVEEAPK", "values": [
      {"measurement": "observed amide hydrogen exchange rate constant kobs", "value": 0.00103}
    ]},
    {"substance": "ATISNDGATILK", "values": [
      {"measurement": "observed amide hydrogen exchange rate constant kobs", "value": 0.00117}
    ]},
    {"substance": "AVCMLSNTTAIAEAWAR", "values": [
      {"measurement": "observed amide hydrogen exchange rate constant kobs", "value": 0.000746}
    ]},
    {"substance": "AVDDGVNTFK", "values": [
      {"measurement": "observed amide hydrogen exchange rate constant kobs", "value": 0.00173}
    ]},
    {"substance": "AVDSQILPK", "values": [
      {"measurement": "observed amide hydrogen exchange rate constant kobs", "value": 0.000865}
    ]},
    {"substance": "AVELAANTK", "values": [
      {"measurement": "observed amide hydrogen exchange rate constant kobs", "value": 0.00114}
    ]},
    {"substance": "AVFPSIVGRPR", "values": [
      {"measurement": "observed amide hydrogen exchange rate constant kobs", "value": 0.000833}
    ]},
    {"substance": "AVFVDLEPTVIDEVR", "values": [
      {"measurement": "observed amide hydrogen exchange rate constant kobs", "value": 0.000889}
    ]},
    {"substance": "AVLVDLEPGTMDSVR", "values": [
      {"measurement": "observed amide hydrogen exchange rate constant kobs", "value": 0.00126}
    ]},
    {"substance": "AVTEQGAELSNEER", "values": [
      {"measurement": "observed amide hydrogen exchange rate constant kobs", "value": 0.00216}
    ]},
    {"substance": "AVTEQGHELSNEER", "values": [
      {"measurement": "observed amide hydrogen exchange rate constant kobs", "value": 0.00324}
    ]},
    {"substance": "AYHEQLSVAEITNACFEPANQMVK", "values": [
      {"measurement": "observed amide hydrogen exchange rate constant kobs", "value": 0.00146}
    ]},
    {"substance": "CAADLGLNK", "values": [
      {"measurement": "observed amide hydrogen exchange rate constant kobs", "value": 0.00234}
    ]},
    {"substance": "CILQDGR", "values": [
      {"measurement": "observed amide hydrogen exchange rate constant kobs", "value": 0.00103}
    ]},
    {"substance": "CPNLTHLNLSGNK", "values": [
      {"measurement": "observed amide hydrogen exchange rate constant kobs", "value": 0.00139}
    ]},
    {"substance": "DAGPLLISLK", "values": [
      {"measurement": "observed amide hydrogen exchange rate constant kobs", "value": 0.000622}
    ]},
    {"substance": "DAGTIAGLNVLR", "values": [
      {"measurement": "observed amide hydrogen exchange rate constant kobs", "value": 0.000899}
    ]},
    {"substance": "DALSDLALHFLNK", "values": [
      {"measurement": "observed amide hydrogen exchange rate constant kobs", "value": 0.00125}
    ]},
    {"substance": "DDGLFSGDPNWFPK", "values": [
      {"measurement": "observed amide hydrogen exchange rate constant kobs", "value": 0.00189}
    ]},
    {"substance": "DEFEGLFK", "values": [
      {"measurement": "observed amide hydrogen exchange rate constant kobs", "value": 0.00163}
    ]},
    {"substance": "DEILPTTPISEQK", "values": [
      {"measurement": "observed amide hydrogen exchange rate constant kobs", "value": 0.000626}
    ]}
  ]
}
